Test results as given in patent US20250327081, “TDP-43-BINDING SINGLE-STRANDED APTAMERS AND USES THEREOF” (FONDAZIONE ISTITUTO ITALIANO DI TECNOLOGIA, published 2025).

Assays:
[1] = target: T1, TDP-43 construct (RRM1-2) (UniProt Q13148 Q13148:104-262); test: BLI; 10 mM K phosphate pH 7.2, 150 mM KCl, 0.01% Tween20, 25 C
Method: (§1) The binding assays were performed in 10 mM potassium phosphate buffer (pH 7.2) with 150 mM KCl and 0.01% Tween20. Streptavidin-coated biosensors were loaded with 1 μg/ml RNA aptamer modified with biotin on the 3′end and exposed to increasing protein concentrations varying from 20 nM to 20 μM, according to the strength of the binding. Kd values were estimated by fitting the response intensity (shift in the wavelength upon binding) as a function of the protein concentration, at the steady state. The assay was repeated at least 3 times, each time in triplicate. The reported binding curves are examples of the output of one experiment.
The inventors verified whether Apt-14 preserves the ability to bind tightly to TDP-43. Bio-layer interferometry was used to determine the dissociation constant of the interaction between Apt-14 and the TDP-43 construct. This experiment was carried out with the same buffer and the same conditions employed for the experiment carried out with Apt-1.

[2] = target: T1, TDP-43 construct (RRM1-2); test: BLI; 10 mM K phosphate pH 7.2, 150 mM KCl, 0.01% Tween20, 25 C; about 90 nM in Example 7; conditions: label: 3'-biotin (BLI)
Method: In this study, the inventors calculated the predicted interaction propensities between the RNA aptamers of Table 1 and TDP-43 and validated the predicted interaction propensities by comparing them with the experimentally measured Kd (dissociation constant) values. To this end, the Kd between each of Apt-1, Apt-2, Apt-3, Apt-11, Apt-12 or Apt-13 and the two RNA recognition motifs of TDP-43 (RRM1-2) was determined by means of biolayer interferometry, a label-free technology to study biomolecular interactions. Importantly, RRM1-2 represents the minimal region necessary for RNA-binding with high affinity (Lukavsky et al., 2013) purifiable as a monomer under near-to-physiological conditions and in suitable quantities (Zacco et al., 2018).
as §1

[3] = target: T1, TDP-43 construct (RRM1-2); test: BLI; 10 mM K phosphate pH 7.2, 150 mM KCl, 0.01% Tween20, 25 C; conditions: label: 3'-biotin
[4] = target: T1, TDP-43 construct (RRM1-2); test: BLI

T1 sequence (Q13148 104-262, one chain of several): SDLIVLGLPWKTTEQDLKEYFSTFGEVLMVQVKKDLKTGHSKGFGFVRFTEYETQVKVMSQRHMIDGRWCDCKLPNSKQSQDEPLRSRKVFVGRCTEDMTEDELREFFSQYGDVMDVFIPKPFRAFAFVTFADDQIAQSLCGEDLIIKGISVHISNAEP

| Binder | Kd [3] [nM] | further results |
| --- | --- | --- |
| CGGTGTTGCT (ssDNA) [Apt-14 (DNA version of Apt-1)] | – | Kd [1]: ~76 nM |
| CGGUGUUGCU (ssRNA) [Apt-1] | – | Kd [2]: 100 nM |
| CGCUGUGGUC (ssRNA) [Apt-3] | 650 | – |
| GUGGUCCCCG (ssRNA) [Apt-2] | 750 | – |
| GCUGGGGUGGGGCGGAUCGGUGUUG (ssRNA) [Apt-1 (25 nt)] | – | Kd [4]: ~750 nM |
| GGGGUGGGGC (ssRNA) [Apt-4] | 1300 | – |
| CGAGGCCGGG (ssRNA) [Apt-5] | 1500 | – |
| GCGGGGCCCG (ssRNA) [Apt-6] | 1600 | – |
